Results on four molecules are retold here after PMC3958868, “The Proteasome Activator PA28γ, a Negative Regulator of p53, Is Transcriptionally Up-Regulated by p53”.

This data set deals with p53 (UniProt P04637 1-393). Description: biotinylated DNA pull-down, western blot; 10 mM Tris-HCl pH 8.0, 40 mM KCl, 1 mM DTT, 6% glycerol, 0.05% NP-40; overnight at 4 °C; 20 µg p53, 1 µg biotinylated oligo; beads washed with Tris-EDTA (100 mM NaCl), binding buffer, PBS. Conditions: protein: recombinant; chain copies: 4; label: biotin. In general terms: Immunoblotting shows a protein as a band on a membrane.
Chain of p53 (P04637 whole entry): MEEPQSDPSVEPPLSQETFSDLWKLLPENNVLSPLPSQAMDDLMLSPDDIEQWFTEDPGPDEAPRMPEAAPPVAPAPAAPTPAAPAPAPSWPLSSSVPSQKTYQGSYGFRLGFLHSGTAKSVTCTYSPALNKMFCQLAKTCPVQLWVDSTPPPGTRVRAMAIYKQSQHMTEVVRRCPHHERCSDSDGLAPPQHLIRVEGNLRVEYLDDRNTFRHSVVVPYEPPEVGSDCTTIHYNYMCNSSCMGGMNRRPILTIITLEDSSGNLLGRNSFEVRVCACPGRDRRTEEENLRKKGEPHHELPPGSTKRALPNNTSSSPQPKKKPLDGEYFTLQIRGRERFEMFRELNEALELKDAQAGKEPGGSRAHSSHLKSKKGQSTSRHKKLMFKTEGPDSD

B1: RE1 mutant (dsDNA)
DNA 1: TTATCGCTTGAAATACTTGTAT
DNA 2: ATACAAGTATTTCAAGCGATAA
With B1, the binding result was “no binding”.

B2: RE2 mutant (dsDNA)
DNA 1: GTGTCGCAAGAGGTATAGTCTCATGCTT
DNA 2: AAGCATGAGACTATACCTCTTGCGACAC
With B2, the binding result was “no binding”.

B3: RE2 wild-type (dsDNA)
DNA 1: GTGCATGAAGAGGTATAGTCTCATGCTT
DNA 2: AAGCATGAGACTATACCTCTTCATGCAC
For the molecule B3, the binding result is listed as “binds”.

B4: RE1 wild-type (dsDNA)
DNA 1: TTACATGTTGAAATACTTGTAT
DNA 2: ATACAAGTATTTCAACATGTAA
Regarding B4, the binding result was “binds”.
